Source: PMC7022404

Assays:
[1] = biological target: Humanized anti-HER2 monoclonal antibody trastuzumab (human); test: SPR
[2] = biological target: Linker-protein G (LPG) (Streptococcus sp.); test: QCM-D; LPG physisorbed on a silica-coated QCM-D crystal, trastuzumab injected, PBS washes between injections; 1 x PBS pH 7.4, room temperature; Kelvin-Voigt model for mass and thickness
[3] = biological target: Recombinant protein G (PG) from Streptococcus sp. (Streptococcus sp.) (UniProt P19909); test: QCM-D; PG covalently immobilised (APTES, glutaraldehyde) on a silica-coated QCM-D crystal, deactivated with Tris/ethanolamine, blocked with BSA; trastuzumab 1 ug/mL in 1 x PBS injected; Kelvin-Voigt model for mass and thickness

Row | Substance | Half-Life t1/2 [1] [min] | Kd [1] [nM] | koff [1] [s⁻¹] | kon [1] [M⁻¹ s⁻¹] | Mass Deposited for Bound Antibody [2] [ng/cm^2] | Mass Deposited for Bound Antibody [3] [ng/cm^2] | Thickness of Bound Antibody [3] [nm]
1 | Recombinant protein G (PG) from Streptococcus sp. (from UniProt P19909 34-562) (natural protein) | 1.4 | 4.62 | 0.00824 | 1.79e+06 |  |  | 
2 | Humanized anti-HER2 monoclonal antibody trastuzumab |  |  |  |  | 1200 | 451 | 7.43
